The source of these data is patent US6111073A, “Tyrosine phosphorylated cleavage furrow-associated proteins (PSTPIPs)” (Genentech, Inc., priority 1998, dated 2000).

Experiment [1] deals with tyrosine phosphorylation of endogenous PSTPIP in Baf3 cells. Description: Tyrosine phosphorylation of endogenous PSTPIP in Baf3 cells (immunoprecipitation, anti-phosphotyrosine blot). It is filed as cell-based, murine. The method, then: Baf3 cells were Iysed in 1% Triton, 50 mM HEPES, 10% glycerol and 5 mM EDTA containing 1 μg/ml aprotinin, PMSF, leupeptin and pepstatin with 1 mM Sodium Vanadate and 10 mM lodoacetic acid. Cells were treated with 0.1 mM Pervanadate for 4 hours before Iysis. Immunoprecipitations were performed in the vanadate-containing Iysis buffer using 1 μg/ml anti-PSTPIP polyclonal antibody and 400 μg of Iysate protein at 4° C. overnight. Western blots were performed using 1 μg/ml affinity purified anti-PSTPIP or 1:5000 dilution of commercial 4G10 anti-phosphotyrosine monoclonal (Upstate Biotech). Signal was detected by HRPO-ECL reagents (Pierce). The C221 -S mutant was as previously described (Cheng et al., (1996) supra). The PTP HSCF D197 -A mutant was generated using PCR. Mutagenesis primer D197A.F ([…]) (SEQ ID NO:24), corresponding to nucleotide 591, and primer D197A.R ([…]) (SEQ ID NO:25) which corresponds to the stop codon, were used in PCR to generate a fragment that could be cut with Mscl and Xbal. pRK.HA.38 WT, a plasmid which encoded the wild type enzyme under the control of the cytomegalovirus promoter (Cheng et al., (1996) supra), was digested with Clal and Mscl and the resulting 600 bp fragment was ligated with the Mscl-Xbal PCR fragment into the Clal and Xbal sites of pRK.tkneo. […]

Experiment [2] deals with T1, interaction between PTP HSCF and PSTPIP (Mus musculus, UniProt P97814).
T1 construct: The longest two hybrid clone was used to isolate a full length cDNA from the original Baf3 two hybrid library; made in house; host or cells: PSTPIP: in vitro transcribed/translated (Promega TnT rabbit reticulocyte system); GST-PTP HSCF fusion: E. coli DH5-alpha, pGEX-4T-2
T1 sequence (P97814 1-415): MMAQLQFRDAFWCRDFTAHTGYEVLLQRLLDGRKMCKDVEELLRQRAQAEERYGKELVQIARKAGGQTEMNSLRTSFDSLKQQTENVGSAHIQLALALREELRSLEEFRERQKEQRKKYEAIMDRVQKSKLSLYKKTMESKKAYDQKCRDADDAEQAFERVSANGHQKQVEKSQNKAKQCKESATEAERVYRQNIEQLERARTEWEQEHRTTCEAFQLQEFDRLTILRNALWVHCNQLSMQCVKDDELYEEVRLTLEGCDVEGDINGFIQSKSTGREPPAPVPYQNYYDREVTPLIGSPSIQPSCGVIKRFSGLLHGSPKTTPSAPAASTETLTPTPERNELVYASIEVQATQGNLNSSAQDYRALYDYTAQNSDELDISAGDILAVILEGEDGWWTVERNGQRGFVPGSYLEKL
The experiment is described as follows: Peptide inhibition of in vitro binding: GST-PST-rich+CTH PTP HSCF precipitating in vitro translated PSTPIP. Conditions: FIG. 4D. Details: species or system murine. The method, then: The binding was carried out according to the method of Wong and Johnson (Wong et al., J. Biol. Chem. 271(35):20981-20984 (1996)). Briefly, 1 μg of plasmid with either the PSTPIP protein or PTP HSCF under the control of the Sp6 promoter was in vitro transcribed/translated using the Promega TnT Rabbit Reticulocyte system. Samples were diluted in 50 mM HEPES, pH 7.2, 1% triton X 100, 10% glycerol, 100 mM NaCI, 5 mM EDTA and 2 μg/ml each of leupeptin, pepstatin, aprotinin, and PMSF. […] This was reacted for 1 hour at 4° C. and then the resin washed 6 times in HEPES/Triton binding buffer before SDS gel electrophoresis. The peptides were synthesized on an automated Milligen 9050 Peptide Synthesizer using standard solid phase chemistry with FMOC protected amino acids on a p-alkoxybenzyl alcohol resin. Dried peptides were re-suspended in the HEPES/Triton Binding buffer at a concentration of 10 mg/ml. Peptide inhibition was performed by adding the peptide first to the in vitro translation product and then the GST-fusion followed by the GSH-Sepharose. The binding/washing steps were as previously described. The peptides synthesized and the PTPs they were derived from were: […]

Experiment [3] deals with in vitro transcribed and translated PSTPIP (murine). The experiment is described as follows: peptide competition of the pull-down of in vitro translated PSTPIP by GST-PST-rich+CTH PTP HSCF.
Experiment [4] addresses T2, in vitro transcribed and translated PSTPIP (murine).
T2 chain: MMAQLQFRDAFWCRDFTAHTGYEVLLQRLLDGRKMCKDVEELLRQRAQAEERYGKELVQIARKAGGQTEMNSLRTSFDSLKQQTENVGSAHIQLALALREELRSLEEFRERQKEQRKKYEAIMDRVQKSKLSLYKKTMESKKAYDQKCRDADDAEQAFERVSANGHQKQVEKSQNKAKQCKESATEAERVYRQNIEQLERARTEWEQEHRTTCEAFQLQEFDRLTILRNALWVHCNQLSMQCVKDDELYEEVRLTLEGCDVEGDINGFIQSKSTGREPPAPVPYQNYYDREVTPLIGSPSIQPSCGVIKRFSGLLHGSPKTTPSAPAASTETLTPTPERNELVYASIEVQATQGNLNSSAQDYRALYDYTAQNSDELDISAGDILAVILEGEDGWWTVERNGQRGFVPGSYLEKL
The experiment is described as above.

Experiment [5] has as its system PTP HSCF. Description: In vitro binding assay: GST fusion precipitation of in vitro translated PTP HSCF. As to conditions: GST fusion protein ~1 microgram per ml or ~1.5 micromolar; compared with polyclonal anti-PTP HSCF antibody; FIG. 3. The method, then:
The binding was carried out according to the method of Wong and Johnson (Wong et al., J. Biol. Chem. 271(35):20981-20984 (1996)). Briefly, 1 μg of plasmid with either the PSTPIP protein or PTP HSCF under the control of the Sp6 promoter was in vitro transcribed/translated using the Promega TnT Rabbit Reticulocyte system. Samples were diluted in 50 mM HEPES, pH 7.2, 1% triton X 100, 10% glycerol, 100 mM NaCI, 5 mM EDTA and 2 μg/ml each of leupeptin, pepstatin, aprotinin, and PMSF. […] This was reacted for 1 hour at 4° C. and then the resin washed 6 times in HEPES/Triton binding buffer before SDS gel electrophoresis. The peptides were synthesized on an automated Milligen 9050 Peptide Synthesizer using standard solid phase chemistry with FMOC protected amino acids on a p-alkoxybenzyl alcohol resin. Dried peptides were re-suspended in the HEPES/Triton Binding buffer at a concentration of 10 mg/ml. Peptide inhibition was performed by adding the peptide first to the in vitro translation product and then the GST-fusion followed by the GSH-Sepharose. The binding/washing steps were as previously described. The peptides synthesized and the PTPs they were derived from were:
In order to characterize the regions involved with the binding between PTP HSCF and PSTPIP, a rapid and direct in vitro binding assay was performed. […]

Take `[O]=[V]([O-])([O-])[O-]` [vanadate]: in experiment [1] (with tyrosine phosphatase inhibitor, FIG. 6), the “tyrosine phosphorylation of endogenous PSTPIP” value is reported as “significantly enhanced”.

With GGVLRSISVPAPPTLPMADT [control peptide], the “ability to block the PTP HSCF-PSTPIP interaction” value in experiment [2] is reported as “completely unable to block the interaction”.

Take PXXP-HSCF peptide (PTP HSCF 432-451): in experiment [3], the concentration at which the peptide blocks the interaction (as low as) is 800 nM.

For PXXP-PEP peptide (PTP PEP 782-800), the concentration at which the peptide blocks the interaction (as low as) in experiment [3] came to 800 nM.

Consider PXXP-PEST peptide (PTP PEST 761-780), for which the concentration at which the peptide blocks the interaction (as low as) in experiment [3] is 800 nM.

In the case of pervanadate, the “phosphotyrosine content of PSTPIP in the absence versus presence of the inhibitor” value in experiment [1] (anti-phosphotyrosine blot, FIG. 6A) is on record as “lower phosphotyrosine content”.

For GGVLRSISVPAPPTLPMADT [PXXP-CONTROL peptide (PTP HSCF 334-353)], in experiment [4], the binding result is listed as “no binding”.

B1: GST PSTPIP: GST fusion protein containing full-length PSTPIP (amino acids 2-415) (protein)
chain: MAQLQFRDAFWCRDFTAHTGYEVLLQRLLDGRKMCKDVEELLRQRAQAEERYGKELVQIARKAGGQTEMNSLRTSFDSLKQQTENVGSAHIQLALALREELRSLEEFRERQKEQRKKYEAIMDRVQKSKLSLYKKTMESKKAYDQKCRDADDAEQAFERVSANGHQKQVEKSQNKAKQCKESATEAERVYRQNIEQLERARTEWEQEHRTTCEAFQLQEFDRLTILRNALWVHCNQLSMQCVKDDELYEEVRLTLEGCDVEGDINGFIQSKSTGREPPAPVPYQNYYDREVTPLIGSPSIQPSCGVIKRFSGLLHGSPKTTPSAPAASTETLTPTPERNELVYASIEVQATQGNLNSSAQDYRALYDYTAQNSDELDISAGDILAVILEGEDGWWTVERNGQRGFVPGSYLEKL
For B1, the “efficiency of precipitating in vitro translated PTP HSCF” value in experiment [5] is “more efficient at precipitating the phosphatase”.
